This sample holds only a part of the variants without activity.
Assays:
biotinyl-Phe-oxazolone = experiment: self-aminoacylation, catalytic enhancement (BFO) (fold over background); higher = more active; k-Seq, kA / k0A0; sequences stand for … in GGGAAUGGAUCCACAUCUACGAAUUC…UUCACUGCAGACUUGACGAAGCUG
In short: (§1)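 Mutagenized RNA pools with a 21-nt variable region (0.43 μM) reacted with each biotinyl-aminoacyl-oxazolone at 2–1250 μM. Reactions ran in 50 μL HEPES/NaCl/KCl/MgCl2/CaCl2 buffer with 5% acetonitrile, pH 6.9–7.0, for 90 minutes at room temperature. Streptavidin-captured RNA was quantified by triplicate qPCR and Illumina sequencing, and per-sequence fraction reacted was fit to a pseudo-first-order model with 1000 bootstraps. Catalytic enhancement is median kA divided by the uncatalyzed rate, the low-activity peak of a bimodal Gaussian fit.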

biotinyl-Ile-oxazolone = experiment: self-aminoacylation, catalytic enhancement (BIO) (fold over background); higher = more active; k-Seq, kA / k0A0; sequences stand for … in GGGAAUGGAUCCACAUCUACGAAUUC…UUCACUGCAGACUUGACGAAGCUG
In short: as §1

biotinyl-Met-oxazolone = experiment: self-aminoacylation, catalytic enhancement (BMO) (fold over background); higher = more active; k-Seq, kA / k0A0; sequences stand for … in GGGAAUGGAUCCACAUCUACGAAUUC…UUCACUGCAGACUUGACGAAGCUG
In short: as §1

biotinyl-Val-oxazolone = experiment: self-aminoacylation, catalytic enhancement (BVO) (fold over background); higher = more active; k-Seq, kA / k0A0; sequences stand for … in GGGAAUGGAUCCACAUCUACGAAUUC…UUCACUGCAGACUUGACGAAGCUG
In short: as §1

biotinyl-Leu-oxazolone = experiment: self-aminoacylation, catalytic enhancement (BLO) (fold over background); higher = more active; k-Seq, kA / k0A0; sequences stand for … in GGGAAUGGAUCCACAUCUACGAAUUC…UUCACUGCAGACUUGACGAAGCUG
In short: as §1

biotinyl-Trp-oxazolone = experiment: self-aminoacylation, catalytic enhancement (BWO) (fold over background); higher = more active; k-Seq, kA / k0A0; sequences stand for … in GGGAAUGGAUCCACAUCUACGAAUUC…UUCACUGCAGACUUGACGAAGCUG
In short: as §1

Row | Sequence | self-aminoacylation (biotinyl-Phe-oxazolone) | self-aminoacylation (biotinyl-Ile-oxazolone) | self-aminoacylation (biotinyl-Met-oxazolone) | self-aminoacylation (biotinyl-Val-oxazolone) | self-aminoacylation (biotinyl-Leu-oxazolone) | self-aminoacylation (biotinyl-Trp-oxazolone)
1 | AAUCACCUAGGUGAUCGGGUG [Fam2.2 aminoacylation ribozyme variant] | 27.7 | 4.6 | 5.43 | 4.03 | 4.84 | 5.05
2 | AAUCACCUCGGUCAUCGGGUG [Fam2.2 aminoacylation ribozyme variant] | 31.2 | 4.07 | 4.76 | 5.23 | 4.99 | 7.61
3 | AAUCAUCUAGGUCAUCGGGUG [Fam2.2 aminoacylation ribozyme variant] | 41.3 | 4.54 | 5.64 | 4.6 | 5.48 | 7.01
4 | AAUCUCCUAGGUCAUCGGGUG [Fam2.2 aminoacylation ribozyme variant] | 35.1 | 4.3 | 6.93 | 4.51 | 6.83 | 5.91
5 | AAUUGUGCUAAUAGUCGCAAG [Fam3.1 aminoacylation ribozyme variant] | 3.05 | 1.93 | 2.02 | 1.75 | 2.18 | 2.44
6 | AAUUUUGCUAAUCGUCGCAAG [Fam3.1 aminoacylation ribozyme variant] | 2.37 | 1.91 | 1.53 | 1.56 | 1.37 | 1.62
7 | AAUUUUGCUAGUAGUCGCAAG [Fam3.1 aminoacylation ribozyme variant] | 2.34 | 2.02 | 1.77 | 1.36 | 1.56 | 1.71
8 | AAUUUUGCUAUUAGUCGCAAG [Fam3.1 aminoacylation ribozyme variant] | 2.76 | 1.98 | 1.71 | 1.63 | 1.89 | 1.85
9 | AAUUUUGCUUAUAGUCGCAAG [Fam3.1 aminoacylation ribozyme variant] | 3.02 | 2.39 | 2.17 | 2.14 | 2.29 | 2.28
10 | AAUUUUUCUAAUAGUCGCAAG [Fam3.1 aminoacylation ribozyme variant] | 3.68 | 1.88 | 1.7 | 1.75 | 1.75 | 1.54
11 | ACACACCUCAAGCAAUCGGUC [Fam1B.1 aminoacylation ribozyme variant] | 1.19 | 0.848 | 0.58 | 0.927 | 0.763 | 0.883
12 | ACACACUUCAACCAAUCGGUC [Fam1B.1 aminoacylation ribozyme variant] | 32.5 | 1.69 | 1.65 | 1.56 | 2.16 | 26.6
13 | ACACACUUCAAGCAAACGGUC [Fam1B.1 aminoacylation ribozyme variant] | 1.56 | 1.02 | 0.749 | 1.04 | 0.941 | 1.13
14 | ACACACUUCAAGCAAGCGGUC [Fam1B.1 aminoacylation ribozyme variant] | 2.18 | 1.6 | 1.33 | 1.73 | 1.52 | 1.74
15 | ACACACUUCAAGCAAUAGGUC [Fam1B.1 aminoacylation ribozyme variant] | 1.57 | 0.894 | 0.828 | 0.976 | 0.737 | 0.901
16 | ACACACUUCAAGCAAUCGGCC [Fam1B.1 aminoacylation ribozyme variant] | 4 | 2.7 | 2.21 | 2.57 | 2.54 | 6.35
17 | ACACACUUCAAGCAAUCGGUG [Fam1B.1 aminoacylation ribozyme variant] | 56.7 | 5.89 | 7.83 | 5.84 | 10.5 | 9.81
18 | ACACACUUCAAGCAAUGGGUC [Fam1B.1 aminoacylation ribozyme variant] | 1.04 | 0.996 | 1.03 | 0.947 | 0.794 | 1.03
19 | ACACACUUCAAUCAAUCGGUC [Fam1B.1 aminoacylation ribozyme variant] | 29.4 | 1.59 | 1.39 | 1.53 | 1.74 | 19.8
20 | ACAGACUUCAAGCAAUCGGUC [Fam1B.1 aminoacylation ribozyme variant] | 68.1 | 2.39 | 2.39 | 2.27 | 3.24 | 38.2
21 | ACCCACCUAGGUCAUCGGGUG [Fam2.2 aminoacylation ribozyme variant] | 54 | 5.07 | 5.93 | 5.64 | 5.88 | 6.03
22 | ACGAUUGCUAAUAGUCGCAAG [Fam3.1 aminoacylation ribozyme variant] | 1.54 | 1.35 | 1.23 | 1.43 | 1.57 | 0.96
23 | ACGGUUGCUAAUAGUCGCAAG [Fam3.1 aminoacylation ribozyme variant] | 2.51 | 1.3 | 1.19 | 1.32 | 1.31 | 1.38
24 | ACGUGUGCUAAUAGUCGCAAG [Fam3.1 aminoacylation ribozyme variant] | 4.86 | 1.6 | 1.62 | 1.28 | 1.68 | 1.63
25 | ACGUUUGCAAAUAGUCGCAAG [Fam3.1 aminoacylation ribozyme variant] | 1.27 | 1.57 | 1.38 | 1.2 | 1.29 | 1.2

Source: the supplement of paper PMC9233669
